US20030017489

Biological target: recombinant Histone H3

B1: hCARM-1 (SEQ ID NO:9) (protein)
chain: MAAAAAAVGPGAGGAGSAVPGGAGPCATVSVFPGARLLTIGDANGEIQRHAEQQALRLEVRAGPDSAGIALYSHEDVCVFKCSVSRETECSRVGKQSFIITLGCNSVLIQFATPNDFCSFYNILKTCRGHTLERSVFSERTEESSAVQYFQFYGYLSQQQNMMQDYVRTGTYQRAILQNHTDFKDKIVLDVGCGSGILSFFAAQAGARKIYAVEASTMAQHAEVLVKSNNLTDRIVVIPGKVEEVSLPEQVDIIISEPMGYMLFNERMLESYLHAKKYLKPSGNMFPTIGDVHLAPFTDEQLYMEQFTKANFWYQPSFHGVDLSALRGAAVDEYFRQPVVDTFDIRILMAKSVKYTVNFLEAKEGDLHRIEIPFKFHMLHSGLVHGLAFWFDVAFIGSIMTVWLSTAPTEPLTHWYQVRCLFQSPLFAKAGDTLSGTCLLIANKRQSYDISIVAQVDQTGSKSSNLLDLKNPFFRYTGTTPSPPPGSHYTSPSENMWNTGSTYNLSSGMAVAGMPTAYDLSSVIASGSSVGHNNLIPLANTGIVNHTHSRMGSIMSTGIVQGSSGAQGSGGGSTSAHYAVNSQFTMGGPAISMASPMSIPTNTMHYGS
methylation of Histone H3 (in vitro methylation reaction, SDS-PAGE, exposed to film): Our experiments showed that hCARM-1 methylates Histone H3 efficiently
